From article PMC9726900 (2022) come the findings set out here.

For this experiment, the target named is 46w60 nucleosome (recombinant human histone octamer on Widom 601 DNA with 46-bp and 60-bp flanks), … (human, UniProt P0C0S8 1-130; P62807 1-126; P68431 1-136; P62805 1-103). Kind of experiment: MST.

B1: CHD4(1–1380) (domain or fragment)
chain: MASGLGSPSPCSAGSEEEDMDALLNNSLPPPHPENEEDPEEDLSETETPKLKKKKKPKKPRDPKIPKSKRQKKERMLLCRQLGDSSGEGPEFVEEEEEVALRSDSEGSDYTPGKKKKKKLGPKKEKKSKSKRKEEEEEEDDDDDSKEPKSSAQLLEDWGMEDIDHVFSEEDYRTLTNYKAFSQFVRPLIAAKNPKIAVSKMMMVLGAKWREFSTNNPFKGSSGASVAAAAAAAVAVVESMVTATEVAPPPPPVEVPIRKAKTKEGKGPNARRKPKGSPRVPDAKKPKPKKVAPLKIKLGGFGSKRKRSSSEDDDLDVESDFDDASINSYSVSDGSTSRSSRSRKKLRTTKKKKKGEEEVTAVDGYETDHQDYCEVCQQGGEIILCDTCPRAYHMVCLDPDMEKAPEGKWSCPHCEKEGIQWEAKEDNSEGEEILEEVGGDLEEEDDHHMEFCRVCKDGGELLCCDTCPSSYHIHCLNPPLPEIPNGEWLCPRCTCPALKGKVQKILIWKWGQPPSPTPVPRPPDADPNTPSPKPLEGRPERQFFVKWQGMSYWHCSWVSELQLELHCQVMFRNYQRKNDMDEPPSGDFGGDEEKSRKRKNKDPKFAEMEERFYRYGIKPEWMMIHRILNHSVDKKGHVHYLIKWRDLPYDQASWESEDVEIQDYDLFKQSYWNHRELMRGEEGRPGKKLKKVKLRKLERPPETPTVDPTVKYERQPEYLDATGGTLHPYQMEGLNWLRFSWAQGTDTILADEMGLGKTVQTAVFLYSLYKEGHSKGPFLVSAPLSTIINWEREFEMWAPDMYVVTYVGDKDSRAIIRENEFSFEDNAIRGGKKASRMKKEASVKFHVLLTSYELITIDMAILGSIDWACLIVDEAHRLKNNQSKFFRVLNGYSLQHKLLLTGTPLQNNLEELFHLLNFLTPERFHNLEGFLEEFADIAKEDQIKKLHDMLGPHMLRRLKADVFKNMPSKTELIVRVELSPMQKKYYKYILTRNFEALNARGGGNQVSLLNVVMDLKKCCNHPYLFPVAAMEAPKMPNGMYDGSALIRASGKLLLLQKMLKNLKEGGHRVLIFSQMTKMLDLLEDFLEHEGYKYERIDGGITGNMRQEAIDRFNAPGAQQFCFLLSTRAGGLGINLATADTVIIYDSDWNPHNDIQAFSRAHRIGQNKKVMIYRFVTRASVEERITQVAKKKMMLTHLVVRPGLGSKTGSMSKQELDDILKFGTEELFKDEATDGGGDNKEGEDSSVIHYDDKAIERLLDRNQDETEDTELQGMNEYLSSFKVAQYVVREEEMGEEEEVEREIIKQEESVDPDYWEKLLRHHYEQQQEDLARNLGKGKRIRKQVNYNDGSQEDRDWQDDQSDNQSDYSVASEEGDEDFDER
In general, Kd refers to a measure of binding affinity in units of concentration. On to B1, for which the Kd was found to be 430 nM.

B2: CHD4(1–1540) (domain or fragment)
chain: MASGLGSPSPCSAGSEEEDMDALLNNSLPPPHPENEEDPEEDLSETETPKLKKKKKPKKPRDPKIPKSKRQKKERMLLCRQLGDSSGEGPEFVEEEEEVALRSDSEGSDYTPGKKKKKKLGPKKEKKSKSKRKEEEEEEDDDDDSKEPKSSAQLLEDWGMEDIDHVFSEEDYRTLTNYKAFSQFVRPLIAAKNPKIAVSKMMMVLGAKWREFSTNNPFKGSSGASVAAAAAAAVAVVESMVTATEVAPPPPPVEVPIRKAKTKEGKGPNARRKPKGSPRVPDAKKPKPKKVAPLKIKLGGFGSKRKRSSSEDDDLDVESDFDDASINSYSVSDGSTSRSSRSRKKLRTTKKKKKGEEEVTAVDGYETDHQDYCEVCQQGGEIILCDTCPRAYHMVCLDPDMEKAPEGKWSCPHCEKEGIQWEAKEDNSEGEEILEEVGGDLEEEDDHHMEFCRVCKDGGELLCCDTCPSSYHIHCLNPPLPEIPNGEWLCPRCTCPALKGKVQKILIWKWGQPPSPTPVPRPPDADPNTPSPKPLEGRPERQFFVKWQGMSYWHCSWVSELQLELHCQVMFRNYQRKNDMDEPPSGDFGGDEEKSRKRKNKDPKFAEMEERFYRYGIKPEWMMIHRILNHSVDKKGHVHYLIKWRDLPYDQASWESEDVEIQDYDLFKQSYWNHRELMRGEEGRPGKKLKKVKLRKLERPPETPTVDPTVKYERQPEYLDATGGTLHPYQMEGLNWLRFSWAQGTDTILADEMGLGKTVQTAVFLYSLYKEGHSKGPFLVSAPLSTIINWEREFEMWAPDMYVVTYVGDKDSRAIIRENEFSFEDNAIRGGKKASRMKKEASVKFHVLLTSYELITIDMAILGSIDWACLIVDEAHRLKNNQSKFFRVLNGYSLQHKLLLTGTPLQNNLEELFHLLNFLTPERFHNLEGFLEEFADIAKEDQIKKLHDMLGPHMLRRLKADVFKNMPSKTELIVRVELSPMQKKYYKYILTRNFEALNARGGGNQVSLLNVVMDLKKCCNHPYLFPVAAMEAPKMPNGMYDGSALIRASGKLLLLQKMLKNLKEGGHRVLIFSQMTKMLDLLEDFLEHEGYKYERIDGGITGNMRQEAIDRFNAPGAQQFCFLLSTRAGGLGINLATADTVIIYDSDWNPHNDIQAFSRAHRIGQNKKVMIYRFVTRASVEERITQVAKKKMMLTHLVVRPGLGSKTGSMSKQELDDILKFGTEELFKDEATDGGGDNKEGEDSSVIHYDDKAIERLLDRNQDETEDTELQGMNEYLSSFKVAQYVVREEEMGEEEEVEREIIKQEESVDPDYWEKLLRHHYEQQQEDLARNLGKGKRIRKQVNYNDGSQEDRDWQDDQSDNQSDYSVASEEGDEDFDERSEAPRRPSRKGLRNDKDKPLPPLLARVGGNIEVLGFNARQRKAFLNAIMRYGMPPQDAFTTQWLVRDLRGKSEKEFKAYVSLFMRHLCEPGADGAETFADGVPREGLSRQHVLTRIGVMSLIRKKVQEFEHVNGRWSMPELAEVEENKKMSQPGSPSPKT
In the case of B2, the dissociation constant (Kd) came out at 210 nM.

B3: CHD4(1–1810) (domain or fragment)
chain: MASGLGSPSPCSAGSEEEDMDALLNNSLPPPHPENEEDPEEDLSETETPKLKKKKKPKKPRDPKIPKSKRQKKERMLLCRQLGDSSGEGPEFVEEEEEVALRSDSEGSDYTPGKKKKKKLGPKKEKKSKSKRKEEEEEEDDDDDSKEPKSSAQLLEDWGMEDIDHVFSEEDYRTLTNYKAFSQFVRPLIAAKNPKIAVSKMMMVLGAKWREFSTNNPFKGSSGASVAAAAAAAVAVVESMVTATEVAPPPPPVEVPIRKAKTKEGKGPNARRKPKGSPRVPDAKKPKPKKVAPLKIKLGGFGSKRKRSSSEDDDLDVESDFDDASINSYSVSDGSTSRSSRSRKKLRTTKKKKKGEEEVTAVDGYETDHQDYCEVCQQGGEIILCDTCPRAYHMVCLDPDMEKAPEGKWSCPHCEKEGIQWEAKEDNSEGEEILEEVGGDLEEEDDHHMEFCRVCKDGGELLCCDTCPSSYHIHCLNPPLPEIPNGEWLCPRCTCPALKGKVQKILIWKWGQPPSPTPVPRPPDADPNTPSPKPLEGRPERQFFVKWQGMSYWHCSWVSELQLELHCQVMFRNYQRKNDMDEPPSGDFGGDEEKSRKRKNKDPKFAEMEERFYRYGIKPEWMMIHRILNHSVDKKGHVHYLIKWRDLPYDQASWESEDVEIQDYDLFKQSYWNHRELMRGEEGRPGKKLKKVKLRKLERPPETPTVDPTVKYERQPEYLDATGGTLHPYQMEGLNWLRFSWAQGTDTILADEMGLGKTVQTAVFLYSLYKEGHSKGPFLVSAPLSTIINWEREFEMWAPDMYVVTYVGDKDSRAIIRENEFSFEDNAIRGGKKASRMKKEASVKFHVLLTSYELITIDMAILGSIDWACLIVDEAHRLKNNQSKFFRVLNGYSLQHKLLLTGTPLQNNLEELFHLLNFLTPERFHNLEGFLEEFADIAKEDQIKKLHDMLGPHMLRRLKADVFKNMPSKTELIVRVELSPMQKKYYKYILTRNFEALNARGGGNQVSLLNVVMDLKKCCNHPYLFPVAAMEAPKMPNGMYDGSALIRASGKLLLLQKMLKNLKEGGHRVLIFSQMTKMLDLLEDFLEHEGYKYERIDGGITGNMRQEAIDRFNAPGAQQFCFLLSTRAGGLGINLATADTVIIYDSDWNPHNDIQAFSRAHRIGQNKKVMIYRFVTRASVEERITQVAKKKMMLTHLVVRPGLGSKTGSMSKQELDDILKFGTEELFKDEATDGGGDNKEGEDSSVIHYDDKAIERLLDRNQDETEDTELQGMNEYLSSFKVAQYVVREEEMGEEEEVEREIIKQEESVDPDYWEKLLRHHYEQQQEDLARNLGKGKRIRKQVNYNDGSQEDRDWQDDQSDNQSDYSVASEEGDEDFDERSEAPRRPSRKGLRNDKDKPLPPLLARVGGNIEVLGFNARQRKAFLNAIMRYGMPPQDAFTTQWLVRDLRGKSEKEFKAYVSLFMRHLCEPGADGAETFADGVPREGLSRQHVLTRIGVMSLIRKKVQEFEHVNGRWSMPELAEVEENKKMSQPGSPSPKTPTPSTPGDTQPNTPAPVPPAEDGIKIEENSLKEEESIEGEKEVKSTAPETAIECTQAPAPASEDEKVVVEPPEGEEKVEKAEVKERTEEPMETEPKGAADVEKVEEKSAIDLTPIVVEDKEEKKEEEEKKEVMLQNGETPKDLNDEKQKKNIKQRFMFNIADGGFTELHSLWQNEERAATVTKKTYEIWHRRHDYWLLAGIINHGYARWQDIQNDPRYAILNEPFKGEMNRGNFLEIKNKFLARRFKLLEQALVIEEQLRRAAYLNMSED
Take B3: the equilibrium dissociation constant (Kd) worked out at 150 nM.

B4: CHD4(1–1230) (domain or fragment)
chain: MASGLGSPSPCSAGSEEEDMDALLNNSLPPPHPENEEDPEEDLSETETPKLKKKKKPKKPRDPKIPKSKRQKKERMLLCRQLGDSSGEGPEFVEEEEEVALRSDSEGSDYTPGKKKKKKLGPKKEKKSKSKRKEEEEEEDDDDDSKEPKSSAQLLEDWGMEDIDHVFSEEDYRTLTNYKAFSQFVRPLIAAKNPKIAVSKMMMVLGAKWREFSTNNPFKGSSGASVAAAAAAAVAVVESMVTATEVAPPPPPVEVPIRKAKTKEGKGPNARRKPKGSPRVPDAKKPKPKKVAPLKIKLGGFGSKRKRSSSEDDDLDVESDFDDASINSYSVSDGSTSRSSRSRKKLRTTKKKKKGEEEVTAVDGYETDHQDYCEVCQQGGEIILCDTCPRAYHMVCLDPDMEKAPEGKWSCPHCEKEGIQWEAKEDNSEGEEILEEVGGDLEEEDDHHMEFCRVCKDGGELLCCDTCPSSYHIHCLNPPLPEIPNGEWLCPRCTCPALKGKVQKILIWKWGQPPSPTPVPRPPDADPNTPSPKPLEGRPERQFFVKWQGMSYWHCSWVSELQLELHCQVMFRNYQRKNDMDEPPSGDFGGDEEKSRKRKNKDPKFAEMEERFYRYGIKPEWMMIHRILNHSVDKKGHVHYLIKWRDLPYDQASWESEDVEIQDYDLFKQSYWNHRELMRGEEGRPGKKLKKVKLRKLERPPETPTVDPTVKYERQPEYLDATGGTLHPYQMEGLNWLRFSWAQGTDTILADEMGLGKTVQTAVFLYSLYKEGHSKGPFLVSAPLSTIINWEREFEMWAPDMYVVTYVGDKDSRAIIRENEFSFEDNAIRGGKKASRMKKEASVKFHVLLTSYELITIDMAILGSIDWACLIVDEAHRLKNNQSKFFRVLNGYSLQHKLLLTGTPLQNNLEELFHLLNFLTPERFHNLEGFLEEFADIAKEDQIKKLHDMLGPHMLRRLKADVFKNMPSKTELIVRVELSPMQKKYYKYILTRNFEALNARGGGNQVSLLNVVMDLKKCCNHPYLFPVAAMEAPKMPNGMYDGSALIRASGKLLLLQKMLKNLKEGGHRVLIFSQMTKMLDLLEDFLEHEGYKYERIDGGITGNMRQEAIDRFNAPGAQQFCFLLSTRAGGLGINLATADTVIIYDSDWNPHNDIQAFSRAHRIGQNKKVMIYRFVTRASVEERITQVAKKKMMLTHLVVRPGLGSKTGSMSKQELDDILKFGTEELFKDE
With B4, the Kd is 250 nM.
